Assay results taken from US20150119475.

Biological target: Snail protein (SNAI1/Snail, expressed as GST fusion in E. coli, GST moiety cleaved with thrombin) (UniProt O95863)
Sequence (O95863 whole entry, the tested form may be a part): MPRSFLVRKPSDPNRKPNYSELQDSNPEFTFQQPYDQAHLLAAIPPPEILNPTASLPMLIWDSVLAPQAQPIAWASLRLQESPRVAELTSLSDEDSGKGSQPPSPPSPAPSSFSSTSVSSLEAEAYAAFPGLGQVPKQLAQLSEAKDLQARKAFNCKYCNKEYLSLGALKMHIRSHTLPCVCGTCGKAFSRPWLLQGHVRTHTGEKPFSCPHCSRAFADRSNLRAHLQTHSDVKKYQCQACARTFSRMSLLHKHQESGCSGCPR

In the case of recombinant Akt3 (ProQinase GmbH), the “in vitro kinase assay with 32P-ATP, detected by autoradiography” value is reported as “Akt1 and Akt3 kinases are able to directly phosphorylate Snail protein”.
